Reference: paper PMC5068790

Columns and labels:
[1] = biological target: mouse Slo1 (BK channel α subunit) (mouse) (UniProt Q08460)
[2] = biological target: Drosophila Slo1 (BK channel α subunit) (Drosophila) (UniProt Q03720)
UniProt Q03720, sequence (Q03720 whole entry): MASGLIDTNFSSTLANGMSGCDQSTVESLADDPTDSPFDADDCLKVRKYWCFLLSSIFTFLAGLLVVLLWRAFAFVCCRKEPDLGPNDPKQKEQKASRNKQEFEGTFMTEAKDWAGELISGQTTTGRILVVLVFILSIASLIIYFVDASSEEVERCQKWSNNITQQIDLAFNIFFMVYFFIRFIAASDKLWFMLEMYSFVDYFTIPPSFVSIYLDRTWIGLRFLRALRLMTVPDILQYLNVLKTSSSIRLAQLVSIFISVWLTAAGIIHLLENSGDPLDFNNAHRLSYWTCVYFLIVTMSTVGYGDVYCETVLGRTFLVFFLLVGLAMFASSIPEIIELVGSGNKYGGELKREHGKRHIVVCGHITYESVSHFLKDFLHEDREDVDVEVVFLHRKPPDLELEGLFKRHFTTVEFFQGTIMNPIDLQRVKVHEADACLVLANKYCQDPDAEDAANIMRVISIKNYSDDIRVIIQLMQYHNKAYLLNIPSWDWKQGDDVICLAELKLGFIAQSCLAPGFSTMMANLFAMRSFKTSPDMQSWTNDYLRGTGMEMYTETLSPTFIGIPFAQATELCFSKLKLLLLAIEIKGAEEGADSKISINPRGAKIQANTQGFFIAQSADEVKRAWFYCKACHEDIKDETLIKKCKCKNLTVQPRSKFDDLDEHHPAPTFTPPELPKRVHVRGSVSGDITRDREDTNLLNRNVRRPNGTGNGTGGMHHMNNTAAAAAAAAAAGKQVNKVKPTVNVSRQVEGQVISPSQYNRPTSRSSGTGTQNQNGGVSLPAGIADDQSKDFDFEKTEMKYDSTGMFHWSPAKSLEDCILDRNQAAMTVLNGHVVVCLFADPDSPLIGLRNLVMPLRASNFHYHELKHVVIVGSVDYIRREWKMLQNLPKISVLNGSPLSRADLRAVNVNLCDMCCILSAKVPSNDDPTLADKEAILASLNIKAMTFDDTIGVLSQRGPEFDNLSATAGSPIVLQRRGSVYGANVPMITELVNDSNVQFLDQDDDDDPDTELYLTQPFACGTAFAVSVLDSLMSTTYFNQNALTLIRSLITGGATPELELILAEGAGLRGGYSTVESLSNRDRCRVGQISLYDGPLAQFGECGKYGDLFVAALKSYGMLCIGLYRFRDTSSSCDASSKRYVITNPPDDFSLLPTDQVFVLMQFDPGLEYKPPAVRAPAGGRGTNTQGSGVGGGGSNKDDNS

UniProt Q08460, sequence (Q08460 whole entry): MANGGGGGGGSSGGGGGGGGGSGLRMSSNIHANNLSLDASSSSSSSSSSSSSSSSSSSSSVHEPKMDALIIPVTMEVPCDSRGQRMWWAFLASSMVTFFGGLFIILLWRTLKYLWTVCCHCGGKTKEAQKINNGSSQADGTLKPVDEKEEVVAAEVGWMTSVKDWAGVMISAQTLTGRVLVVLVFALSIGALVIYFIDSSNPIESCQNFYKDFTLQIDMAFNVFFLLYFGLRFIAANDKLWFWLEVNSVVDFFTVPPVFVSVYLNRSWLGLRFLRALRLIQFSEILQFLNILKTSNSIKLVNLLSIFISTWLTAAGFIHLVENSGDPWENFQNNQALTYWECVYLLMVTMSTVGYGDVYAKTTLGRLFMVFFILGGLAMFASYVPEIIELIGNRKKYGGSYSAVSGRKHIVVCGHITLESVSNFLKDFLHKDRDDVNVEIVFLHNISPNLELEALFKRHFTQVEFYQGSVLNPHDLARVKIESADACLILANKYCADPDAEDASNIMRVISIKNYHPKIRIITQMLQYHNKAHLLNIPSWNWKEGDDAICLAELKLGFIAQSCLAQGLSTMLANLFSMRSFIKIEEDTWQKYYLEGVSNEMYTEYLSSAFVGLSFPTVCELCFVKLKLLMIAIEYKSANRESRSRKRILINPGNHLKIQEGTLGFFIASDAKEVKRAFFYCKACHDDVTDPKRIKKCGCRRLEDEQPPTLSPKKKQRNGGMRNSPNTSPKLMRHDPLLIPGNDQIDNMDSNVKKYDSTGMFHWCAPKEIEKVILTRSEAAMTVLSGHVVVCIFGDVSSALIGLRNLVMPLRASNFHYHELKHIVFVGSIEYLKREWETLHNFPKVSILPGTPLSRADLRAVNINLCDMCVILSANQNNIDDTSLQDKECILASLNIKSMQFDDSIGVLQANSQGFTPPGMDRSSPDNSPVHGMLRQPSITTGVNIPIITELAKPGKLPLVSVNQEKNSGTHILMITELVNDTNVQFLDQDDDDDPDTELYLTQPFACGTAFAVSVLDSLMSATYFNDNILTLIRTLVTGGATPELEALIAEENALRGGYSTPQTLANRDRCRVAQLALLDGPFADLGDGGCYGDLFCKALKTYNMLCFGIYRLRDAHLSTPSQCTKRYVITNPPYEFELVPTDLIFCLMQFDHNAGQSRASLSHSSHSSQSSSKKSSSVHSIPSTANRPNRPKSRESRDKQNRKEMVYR

B1: BK channel auxiliary β2 subunit (natural protein)
chain: MFIWTSGRTSSSYRHDEKRNIYQKIRDHDLLDKRKTVTALKAGEDRAILLGLAMMVCSIMMYFLLGITLLRSYMQSVWTEESQCTLLNASITETFNCSFSCGPDCWKLSQYPCLQVYVNLTSSGEKLLLYHTEETIKINQKCSYIPKCGKNFEESMSLVNVVMENFRKYQHFSCYSDPEGNQKSVILTKLYSSNVLFHSLFWPTCMMAGGVAIVAMVKLTQYLSLLCERIQRINR
patch clamp, inside-out patches of HEK293 cells, α:β2 transfection ratio 1:0.2: share of random tests whose currents showed rapid and complete inactivation (called binding rate) [1]: 100% | patch clamp, inside-out patches of HEK293 cells: share of random tests with inactivation or brief openings (β2 binding ratio) at α:β2 transfection ratios 1:0.2 (about 7%), 1:1, 1:4 and 1:8 [2]: 85%

B2: Δ3-β2 (β2 subunit with the inactivation ball FIW deleted) (natural protein)
chain: MTSGRTSSSYRHDEKRNIYQKIRDHDLLDKRKTVTALKAGEDRAILLGLAMMVCSIMMYFLLGITLLRSYMQSVWTEESQCTLLNASITETFNCSFSCGPDCWKLSQYPCLQVYVNLTSSGEKLLLYHTEETIKINQKCSYIPKCGKNFEESMSLVNVVMENFRKYQHFSCYSDPEGNQKSVILTKLYSSNVLFHSLFWPTCMMAGGVAIVAMVKLTQYLSLLCERIQRINR
patch clamp, inside-out patches of HEK293 cells, α:β2 transfection ratio 1:0.2, 10 μM Ca2+: share of random tests with a left shift of V50 to −30 mV from about +25 mV (called binding rate) [1]: 100% | patch clamp, inside-out patches of HEK293 cells, transfection ratio 1:0.2: share of random tests with slow activation (called β2 binding rate) [2]: 100%
